The source of these data is the supplement of paper PMC12042874.

A short description of this data set: amyloid nucleation score (Sup35N fusion, yeast selection) (log enrichment); library NNK3; higher = more nucleation; inactive = no reads after selection. A digest of the protocol: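 Plasmid inserts were Illumina-sequenced at input and output from psi-negative yeast expressing Sup35N fused to peptides of 20 random codons. The yeast were induced with 100 μM copper sulfate for 24 hours and grown 7 days at 30°C on medium lacking adenine and uracil, and sequences with under 100 input reads were excluded. Nucleation score is the DiMSum log enrichment of output over input reads, centred on the mode score of non-aggregating sequences.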

± gives the uncertainty stated by the source.

Take NSLMYFRGKFLFSIYNCYVH: the amyloid nucleation score entry is “inactive”. The same measure for FRYVVHTESYTIESVEVIR: 1.22 ± 0.094. The same measure for RKYVTRCASMMVHHYAYDTR: “inactive”. The same measure for DYTSYILLS: “inactive”; for KSMYWLYCTEWEHSNMHVFM: 0.17 ± 0.68.

For DISSLR, the amyloid nucleation score entry was “inactive”.

With CSALC, the amyloid nucleation score result was “inactive”.

Turning to GRLINYSILKMVTVWFYLL, the amyloid nucleation score result was “inactive”. On to CHHYHMWLRFGSVEWIRGMD, for which the amyloid nucleation score was -0.052 ± 0.38. The same measure for TNTRASMFIFCVHSMSLLFY: “inactive”; for SELETQDIYMRSQPFTEFSP: “inactive”. The same measure for IEGVGCIFRDLGDFLRGPWG: “inactive”; for HVSQTWLGRGADSGHWPRQG: 0.325 ± 0.46. The same measure for FLVNEEPVQLHGAPVRYFKF: -0.504 ± 1.1. On to CCMYMISCRDN, for which the amyloid nucleation score result is “inactive”. The same measure for THTTAS: “inactive”; for CFTVVPGSVMF: “inactive”. The same measure for IEAMRNRWSFKY: “inactive”; for MVQNLQNRYGSWSCKFGFQR: “inactive”. The same measure for MRDMIINMVSGETNGLCVKP: “inactive”; for CGMRNLR: “inactive”. Turning to IEWLI, the amyloid nucleation score entry is “inactive”. The same measure for VGSNSDSVCCSPVVAGFQWT: 1.07 ± 0.1; for RNCLIYGHNDILGISRLSDF: “inactive”; for ISTVFLVISSAGTCPSHDKE: 1.32 ± 0.095. The same measure for SKVRICKDKGWSG: “inactive”; for NRACKLCSFKSGQRSNTMGF: “inactive”; for GYLYDFLPCP: -0.497 ± 0.7. VANYGQVQHWYRGYVEDEGL: the amyloid nucleation score result is “inactive”. The same measure for ITTFVVMCDLVVLVC: “inactive”; for LCMAFNVIPQTSFLALKASC: “inactive”; for AIRPKSGAWSHLCYASIG: “inactive”. The same measure for FVNCLCKRARYYSSGGLSSP: -0.512 ± 1.4; for SYMISPAVGKDRDM: “inactive”. Turning to ECLKVRW, the amyloid nucleation score entry is “inactive”.

As to FVLIIYLLACSEMLFVFKEV, the amyloid nucleation score entry is “inactive”. The same measure for VWCLFTSLSS: “inactive”; for QYKSMAGSLWFNSVQEQASK: “inactive”.

Consider MHNRLVNDPACPVSTSSL, for which the amyloid nucleation score result was “inactive”. The same measure for RLGLSAMSFCLCDSTSIATY: “inactive”; for FGQDSPSVLTC: -0.381 ± 0.7. The same measure for RVKRWK: -0.095 ± 0.85.

SKTGLDMADMIKRGDCGEST: the amyloid nucleation score result is “inactive”. The same measure for VLLPAGRIR: “inactive”; for IDVLV: “inactive”; for KYLGG: “inactive”.

On to CIPLLFWVWSSNVCVRLKLQ, for which the amyloid nucleation score entry was “inactive”.

Regarding RVWVMV, the amyloid nucleation score entry was “inactive”. The same measure for CTNKFVWKFVKFNNLCLLAY: “inactive”; for YVSLVSLCMCIRLQGEFLYG: 1.24 ± 0.089.

In the case of WIRIIQLNVSERGNRVGSYC, the amyloid nucleation score turned out to be 0.37 ± 0.5.

As to WAGLHRVRFES, the amyloid nucleation score was -0.26 ± 0.42.

IFWYEDKIYKMGWQFGGIAY came in with an amyloid nucleation score of 1.1 ± 0.11.

MLNVINVYHVSSCGLRGNFE yielded an amyloid nucleation score of 2.63 ± 0.077. The same measure for VPSNLGKPHMCRRSRDYFTA: “inactive”; for LYLYSWFC: “inactive”.

For RHELTNRREK, the amyloid nucleation score result is “inactive”. In the case of VIFDLVVGCGAVL, the amyloid nucleation score entry was “inactive”. Substance IFVWGNNLTMSLSVFNNA gave an amyloid nucleation score of 2.58 ± 0.072. The same measure for SNYSV: “inactive”; for VFCLVYKKCLKSYCQYMVIG: “inactive”; for VRFTHKCSLG: “inactive”. In the case of GSGGAMELVRFYYLNVAVCV, the amyloid nucleation score entry is “inactive”. The same measure for QMGVVNLRAKGQQCAQRQSK: “inactive”; for KESVYPTWHMRWFVYCELVL: “inactive”; for FRLVGNIRTFYGYR: “inactive”.

As for RWSILDGHHNVVLSVPSKS, the amyloid nucleation score result is “inactive”. The same measure for SWIVRLWCVMWNNLFVFIRN: “inactive”; for VRWWWLNF: “inactive”; for CLPQHKISNH: “inactive”. The same measure for NNSGLSFFSNLGWVLHGDLV: “inactive”; for NFMCFLVFHDLYEGQGYELR: 2.3 ± 0.089.

In turn, DAYREY registered an amyloid nucleation score of -0.557 ± 1.2. The same measure for PDTLRRNRVSRFTFAKRCGL: -0.769 ± 0.98; for AVMDGRNMSYSMYIRCCMWL: 2.7 ± 0.074; for VSYCAWSFEG: “inactive”. The same measure for FIVYMSTHRA: 1.67 ± 0.11; for SLNLEENLSFHGVCRMYFNE: “inactive”. The same measure for VLMSYQVCV: “inactive”; for MWSHLVCCNRQPENLYG: 1.32 ± 0.16; for TCMHC: “inactive”. On to LQSEPVLSDTSMSGVVASYF, for which the amyloid nucleation score entry was “inactive”. The same measure for IPIVRTLNLLASTLTPLCR: “inactive”; for LLRSCYVSYALNGYSTTFRD: “inactive”.

INLHFDITDWANNDLENKGH: the amyloid nucleation score entry was “inactive”. The same measure for VMSCYAYYFTTRQDFPFLWD: “inactive”; for MHGTI: “inactive”. The same measure for FRPLFSESHYPASLTGTGHN: “inactive”; for TSLASNFANVTSVTCY: -0.679 ± 1. The same measure for IDGWRGELVMTYN: 0.025 ± 0.48; for SNANKCGRMFEMKYRHNLCL: “inactive”; for RCVSMEADWVVSAEFTKDVF: “inactive”. IEGSYIDMFLYSYLMSGSLI: the amyloid nucleation score entry was “inactive”. The same measure for GIIMPKSRLVPTWTQSRSCC: “inactive”; for VSRVTRLNKFISVVHDSCEV: “inactive”; for TPNRGDFWITCSGGVGVWYG: “inactive”. The same measure for VEHSFYSLVCHRTDLF: “inactive”; for LVIWYLQSLYSPGINCQDLR: “inactive”; for FELSNVHGSLNRAKV: -0.526 ± 0.8. The same measure for RLMDITL: “inactive”.

RMTMRRSSWQVEGITSLRIL: the amyloid nucleation score entry was “inactive”. The same measure for SAWVVFVVFFVSFDPDILFY: “inactive”; for REMFASPSIGTALRR: “inactive”; for RLFFNPVVVVIWPGVRNVGV: 0.189 ± 0.66.

As to GLVVVT, the amyloid nucleation score result is “inactive”.

Regarding IILRFDGFTMSSPRNLVIDG, the amyloid nucleation score entry is “inactive”. The same measure for IALSVDYLRFIFKNHSA: -0.464 ± 0.66. The same measure for LFLDWALIFLV: “inactive”. The same measure for IALIICEGLPRMRGSSGPVG: “inactive”; for ILVLTKRVCYGSLFRYAWAK: “inactive”. RILLLDTEFRLPNLPTS returned an amyloid nucleation score of 1.89 ± 0.072. The same measure for WPLRGRSMLQWLSCHIQWAG: “inactive”. As to DVTYECGRS, the amyloid nucleation score result was “inactive”. Regarding FHNAFAFLSHWGVMVRSFEG, the amyloid nucleation score entry was “inactive”. The same measure for RIVNALTSCDLFSCGSVLRR: 1.92 ± 0.1; for LPKCQLLLRRCRV: “inactive”. The same measure for QLFMPGSVVTHRSYFTCMWL: 1.95 ± 0.064. The same measure for ISWTYVRYYGHKKCCLFYHF: “inactive”; for MVTLKQYLYSG: 1.05 ± 0.2; for ADRMDGDSTGFYSTNLRGYS: “inactive”.

For KFTFMQIKISPFDTCIQGWW, the amyloid nucleation score was -0.067 ± 0.4.

Regarding LCRLLVSTWNSASSFFCRKL, the amyloid nucleation score result was “inactive”.

The substance RRKKQFFFLFFSHRNLFFPV displayed an amyloid nucleation score of 2.18 ± 0.097. The same measure for TYWVGWML: “inactive”. Turning to FLFLLWCNMMPEMYVIAMNI, the amyloid nucleation score entry is “inactive”. The same measure for PGKYGLV: “inactive”; for RHRFSTSGRYFVSIRLVSSF: “inactive”; for FSSNTT: “inactive”. The same measure for LYSLT: “inactive”; for IGLRLVATLIDLRNADIGYG: “inactive”. The same measure for IHDMVQYERCDNRNSNRVHE: “inactive”. For CMTTASVQDKMVLLVWLLDE, the amyloid nucleation score entry is “inactive”. The same measure for FFEFSTSVVYN: “inactive”; for WLHKH: “inactive”.
